# Numbering of substitutions follows the chain as printed. In names and notes the source's numbering stands.
# B1: F010300534 (VHH)
# VHH: EVQLVESGGGLVQPGGSLRLSCAASGMLFNANTQGWYRQAPGKQRELVAFIFSGGYVNYVDSVKGRFTISRDNAKRTMYLQMNSLKPEDSAIYYCSLSRYLGQGTLVTVSS
# notes: vs F0103265A11: T57V
# B2: F010300535 (VHH)
# VHH: B1 VHH with S53W, V57T
# notes: vs F0103265A11: S53W
# B3: F010300536 (VHH)
# VHH: B1 VHH with V57T, N58T
# notes: vs F0103265A11: N58T
# B4: F010300477 (VHH)
# VHH: EVQLVESGGGLVQPGGSLRLSCAASGSIFNINSMAWYRRAPGKQRELVASSTNGGSTNYADSVKGRFTISRDNAKRVYLQMNSLTPEDTAVYYCNWLLQPSIYDISRTYWGQGTLVTVSS
# notes: vs F0103275B05: A94W
# B5: F010300631 (VHH)
# VHH: B4 VHH with S27P, I28V, S50Y, N53P, N95R, W96A
# notes: vs F0103275B05: S27P, I28V, S50Y, N53P, N93R
# B6: F010300659 (VHH)
# VHH: B4 VHH with S27P, I28V, S50Y, N53P, G55W, S56D, T57W, N95R
# notes: also called F0103275B05(S27P, I28V, S50Y, N53P, G55W, S56D, T57W, N93R, A94W)+FLAG3-HIS6
# B7: F010300684 (VHH)
# VHH: B4 VHH with S27P, I28V, I31W, N53P, N95R, W96A, T108I
# notes: vs F0103275B05: S27P, I28V, I31W, N53P, N93R, T101I
# B8: F010300900 (VHH)
# VHH: B4 VHH with S27P, I28V, S33R, N53P, S56D, N95R, T108I
# notes: vs F0103275B05: S27P, I28V, S33R, N53P, S56D, N93R, A94W, T101I
# B9: F010300990 (VHH)
# VHH: B4 VHH with S27P, I28V, S33R, S50Y, N53P, W96A, T108I
# notes: vs F0103275B05: S27P, I28V, S33R, S50Y, N53P, T101I
# B10: F010300948 (VHH)
# VHH: B4 VHH with S27P, I28V, S33R, N53P, N95R, T108I
# notes: vs F0103275B05: S27P, I28V, S33R, N53P, N93R, A94W, T101I
# B11: F010300880 (VHH)
# VHH: B4 VHH with S27P, I28V, S33R, N53P, S56D, N95R
# notes: vs F0103275B05: S27P, I28V, S33R, N53P, S56D, N93R, A94W
# B12: F010300702 (bispecific antibody, V domains shown, not shown: small tags and cut ends)
# VH: B4 VHH with N95R, W96A
# notes: also called F010300702 (n = 15); control bivalent ISVD
# B13: F0103275B05-FLAG3 + HIS6 (VHH)
# VHH: B4 VHH with W96A
# notes: also called F0103275B05 (parental)-FLAG-HIS6
# B14: F010300191 (bispecific antibody)
# chain: EVQLVESGGGLVQPGGSLRLSCAASGSIFNINSMAWYRRAPGKQRELVASSTNGGSTNYADSVKGRFTISRDNAKRVYLQMNSLTPEDTAVYYCNALLQPSIYDISRTYWGQGTLVTVSSGGGGSGGGGSGGGGSGGGGSGGGGSGGGGSGGGGSGGGGSGGGGSGGGGSEVQLVESGGGLVQAGGSLRLSCAASGGTGRRYAMGWFRQAPGKEREIVAAIRWSAMTYYADDGKGRFTISRDNAKNTVYLQMNSLKPEDTAIYYCAYTWDYFKYDQVRAYRGWGQGTLVTVSSGAADYKDHDGDYKDHDIDYKDDDDKGAAHHHHHH
# notes: also called F0103275B05-50GS-F0103240B04-FLAG3-HIS6
# B15: F010302380 (bispecific antibody)
# chain: DVQLVESGGGLVQPGGSLRLSCAASGSIFNINSMAWYRRAPGKQRELVASSTNGGSTNYADSVKGRFTISRDNAKRVYLQMNSLTPEDTAVYYCRALLQPSIYDISRTYWGQGTLVTVSSGGGGSGGGGSGGGGSGGGGSGGGGSGGGGSGGGGSGGGGSGGGGSGGGGSEVQLVESGGGLVQAGGSLRLSCVTSGRTSDLSTMNWFRQAPGKEREFVARITRRGSTYYAESVKERFIISRDNAKNTVYLQMNSLKPEDTANYYCTAASEMGYHYRGQGTQVTVSSGAADYKDHDGDYKDHDIDYKDDDDKGAAHHHHHH
# notes: also called F0103275B05(E1D, N93R)-50GS-F0103505D08(L108Q)-FLAG3-HIS6
# B16: F010301458 (VHH)
# VHH: B1 VHH with A31R, Y56W, V57T, V60N, S96A, L101Q
# notes: vs F0103265A11: A31R, Y56W, V60N, S93A, L103Q
# B17: F010301463 (VHH)
# VHH: B1 VHH with A31R, V57T, V60N, S96A, L101Q
# notes: vs F0103265A11: A31R, V60N, S93A, L103Q
# Target: T1, huNav1.7α (human, UniProt Q15858 1-1988)
# T1 construct: HEK cells expressing the α subunit alone; also called HEKa; HEK huNav1.7α
# Experiment: binding FACS, HEKa cells
# Procedure: Binding of the ISVDs to cell-expressed Nav1.7α was detected via murine anti-Flag (Sigma, catalog #F1804). Briefly, cells were resuspended in FACS buffer (PBS, 10% FBS, NaN₃) and transferred to a 96-well V-bottom plate at 1×10^5 cells/well. Purified FLAG3-tagged ISVD was diluted in FACS buffer and added to the cells for 30 minutes at 4° C. […] Prior to the read-out, the samples were resuspended in 1 μg/mL propidium iodide (Sigma, catalog #P4170) to exclude dead cells. Between each step, the cells were centrifuged for 5 minutes at 200 grams and washed with 100 μL/well FACS buffer.
Binder,binding result,EC50 [nM]
B1,no binding,
B2,,720
B3,,660

# Target: T1, huNav1.7α
# Experiment: cell-based or functional assay
Binder,"2-pulse IC50 [M], P1 [M]","2-pulse IC50 [M], P2 [M]"
B4,2e-06,2e-06
B5,1e-06,8e-07
B6,1e-06,8e-07
B7,2e-06,2e-06

# Target: rhNav1.7α (rhesus monkey, UniProt Q15858 1-1988 (human entry))
# Experiment: cell-based or functional assay
Binder,"2-pulse IC50 [M], P1 [M]","2-pulse IC50 [M], P2 [M]"
B4,3e-06,1e-06
B5,2e-06,8e-07
B6,1e-06,7e-07
B7,7e-06,1e-06

# Target: T2, rhNav1.7α+β1-β2-β3 (rhesus monkey α subunit with human β …)
# Experiment: cell-based or functional assay
row,Binder,single pulse IC50 [nM]
1,B4,1200
2,B5,170
3,B8,36
4,B6,180
5,B9,100
6,B7,210
7,B10,58
8,B11,120

# Target: T3, huNav1.7α+β1 (human, UniProt Q15858 1-1988; Q07699 19-218)
# Experiment: cell-based or functional assay
row,Binder,single pulse IC50 [nM]
1,B4,96
2,B5,73
3,B8,200
4,B6,85
5,B9,250
6,B7,200
7,B10,320
8,B11,27

# Target: T4, huNav157chim14 (human)
# T4 construct: HEK Flp-In cells; also called huNav157 chimera 14
# Experiment: binding FACS, HEK Flp-In
row,Binder,MFI [MFI]
1,B12,27700

# Target: T5, huNav1.7α (human, UniProt Q15858 1-1988)
# T5 construct: HEK cells expressing the α subunit without β subunits; also called huNav1.7 (alpha-subunit); Human Nav1.7α
# Experiment: binding FACS, HEK
row,Binder,EC50 [nM]
1,B13,13

# Target: T6, huNav1.7α + β1 (human)
# T6 construct: HEK293 cells; also called huNav1.7-beta1; huNav1.7-β1
# Experiment: binding FACS, HEK
row,Binder,EC50 [nM]
1,B13,13

# Target: T7, huNav1.7α + β1-β2-β3 (human, UniProt Q15858 1-1988; A5A6L6 19-218; O60939 30-215; Q2KI11 23-215)
# T7 construct: also called huNav1.7-beta1-beta2-beta3; huNav1.7-β1-β2-β3
# Experiment: competition FACS vs EC25 of F103275B05(N93R), HEK FlpIn
row,Binder,IC50 [nM]
1,B14,0.1
2,B15,8.7

# Target: T3, huNav1.7α+β1
# Experiment: binding FACS, HEKa/β1 cells
row,Binder,EC50 [nM]
1,B8,70
2,B6,27
3,B9,65
4,B10,68
5,B11,44

# Target: T8, huNav1.7α+β1-β2-β3 (human, UniProt Q15858 1-1988; Q07699 19-218; O60939 30-215; Q9NY72 23-215)
# T8 construct: 5N11S variant; also called huNav1.7-beta1-beta2-beta3; huNav1.7α+Navβ1-Navβ2-Navβ3
# Experiment: binding FACS, HEK FlpIn cells
row,Binder,EC50 [nM]
1,B1,72
2,B2,16
3,B16,4.1
4,B17,4.3
5,B3,27

# Target: T7, huNav1.7α + β1-β2-β3
# Experiment: competition FACS vs EC25 of F103275B05(N93R), CHO FlpIn
row,Binder,IC50 [nM]
1,B15,8.1

# Target: T2, rhNav1.7α+β1-β2-β3
# Experiment: binding FACS, CHO FlpIn cells
row,Binder,EC50 [nM]
1,B4,170
2,B5,45
3,B8,25
4,B6,55
5,B9,38
6,B7,50
7,B10,20
8,B11,26

# Target: T9, rhNav1.7α + β1-β2-β3 (rhesus monkey)
# T9 construct: also called rhNav1.7-beta1-beta2-beta3; rhNav1.7-β1-β2-β3
# Experiment: competition FACS vs EC40 of F103275B05(N93R), CHO FlpIn
row,Binder,IC50 [nM]
1,B15,2

# Target: T3, huNav1.7α+β1
# Experiment: binding FACS, HEKa/β1 cells
# Remark: another data set of the same source
# Procedure, shortened: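 Cells in FACS buffer (PBS, 10% FBS, NaN₃) were incubated with purified FLAG3-tagged ISVD for 30 minutes at 4° C. Bound ISVD was detected by flow cytometry with murine anti-Flag, and dead cells were excluded with 1 μg/mL propidium iodide.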
Binder,Bmax relative to '535 [%],EC50 [nM]
B1,62,11
B2,100,5.5
B16,120,2.2
B17,120,2.5
B3,77,9

# Target: T1, huNav1.7α
# Experiment: binding FACS, HEKa cells
# Remark: another data set of the same source
row,Binder,EC50 [nM]
1,B8,20
2,B6,9.7
3,B9,4.3
4,B10,69
5,B11,15

# Target: T5, huNav1.7α
# Experiment: competition FACS vs EC25 of F103275B05(N93R), HEK
row,Binder,IC50 [nM]
1,B14,67
2,B15,67

# Target: T6, huNav1.7α + β1
# Experiment: competition FACS vs EC25 of F103275B05(N93R), HEK
row,Binder,IC50 [nM]
1,B14,110
2,B15,110
